# In the RNAGym collection of RNA variant scans (doi:10.7554/elife.80360):
# B1: HDV Ribozyme (parent)
# chain: GGCCGGCAUGGUCCCAGCCUCCUCGCUGGCGCCGGCUGGGCAACAUUCCGAGGGGACCGUCCCCUCGGUAAUGGCGAAUGGGACCCA
# Variants of: B1
# Experiment: self-cleavage, relative activity (ratio to wild type); higher = more cleavage; co-transcriptional
row,Variant,self-cleavage
1,GGCCGGCAUGGUCCCAGCCUCCUCGGUGGCGCCAGCUGGGCAACAUUCCGAGGGGACCGUCCCCUCGGUAAUGGCGAAUGGGACCCA [C26G G34A],0.54
2,GGCCGGCAUGGUCCCAGCCUCCUCGGUGGCGCCGGCUGGGCAACAUUCCGAGGGGACCUUCCCCUCGGUAAUGGCGAAUGGGACCCA [C26G G59U],0.831
3,GGCCGGCAUGGUCCCAGCCUCCUCGGUGGCGCCGGCUGGCCAACAUUCCGAGGGGACCGUCCCCUCGGUAAUGGCGAAUGGGACCCA [C26G G40C],0.19
4,GGCCGGCAUGGUCCCAGCCUCCUCGUUGGCGCCGGCUGGGCUACAUUCCGAGGGGACCGUCCCCUCGGUAAUGGCGAAUGGGACCCA [C26U A42U],0.682
5,GGCCGGCAUGGUCCCAGCCUCCUCGGUGGCGCCGGCUGGGCAACAUUCCGAGGGGACCGUCCCCUCGGUAAUGGCGAAUGGAACCCA [C26G G82A],0.813
6,GGCCGGCAUGGUCCCAGCCUCCUCGGUGGCGCCGGCUGGGCAACAUUCCGAGGGGACCGUCCCCUCGGUAAUGUCGAAUGGGACCCA [C26G G74U],0.359
7,GGCCGGCAUGGUCCCAGCCUCCUCGGUGGCGCCGGCUGGGCAACAUUCCGAGGGGACCGUCCCCUCGGUAAUGGAGAAUGGGACCCA [C26G C75A],0.266
8,GGCCGGCAUGGUCCCAGCCUCCUCGGUGGCGCCGGCUGGGCAACAUUCCGAGGGGACCGUCCCCUCGGUAAUGGCGAAUGGGACCAA [C26G C86A],0.847
9,GGCCGGCAUGGUCCCAGCCUCCUCGUUGGCGCCGGCUGGGCAACAUUCCGAGGGGACCGUCCCCUCGGUAAUGGCGAAUGGGACCCA [C26U],1.02
10,GGCCGGCAUGGUCCCAGCCUCCUCGUUGGCGCCGGCUGGGCAACAUUCCGAGGGGACCGUCCCCUCGGUGAUGGCGAAUGGGACCCA [C26U A70G],0.831
11,GGCCGGCAUGGUCCCAGCCUCCUCGGUGGCGCCGGCUGGGCAACAUUCCGAGGGGACCGUCCCCUCGGUAAUGGCGAAUGGGAACCA [C26G C84A],1.09
12,GGCCGGCAUGGUCCCAGCCUCCUCGGUGGCGCCGGCUGGGCAACAUUCCGAGGGAACCGUCCCCUCGGUAAUGGCGAAUGGGACCCA [C26G G55A],0.884
13,GGCCGGCAUGGUCCCAGCCUCCUCGGUGGCGCCGGCUGGGCAACAUUCCGAGGGGACCGUCCCCUCGGUAAUUGCGAAUGGGACCCA [C26G G73U],0.291
14,GGCCGGCAUGGUCCCAGCCUCCUCGGUGGCGCCGGCUGGGCAACAAUCCGAGGGGACCGUCCCCUCGGUAAUGGCGAAUGGGACCCA [C26G U46A],0.731
15,GGCCGGCAUGGUCCCAGCCUCCUCGGUGGCGCCGGCUGGGCAACAUUCCGAGGGGACCGUCCCCUCGGUAAUGGCGAAUGGGACACA [C26G C85A],1.06
16,GGCCGGCAUGGUCCCAGCCUCCUCGGUGGCGCCGGCUGGGCAACAUUCCGAGGGGACCGUCCCCUCGGUAAUGGCGAAUGGGACGCA [C26G C85G],0.965

row,Variant,self-cleavage
1,GGCCGGCAUGGUCCCAGCCUCCUCGGUGGCGCCGGCUGGGCAACAUUCCGAGGGGACCGUCCCCUCUGUAAUGGCGAAUGGGACCCA [C26G G67U],0.665
2,GGCCGGCAUGGUCCCAGCCUCCUCGGUGGCGCCGGCUGGGCAACAUUCCGAGGGGACCGUCCCCUCGGCAAUGGCGAAUGGGACCCA [C26G U69C],1.26
3,GGCCGGCAUGGUCCCAGCCUCCUCGGUGGCGCCGGCUGGGCAACAUUCCGAGGGGACCGUCCCCUCGGAAAUGGCGAAUGGGACCCA [C26G U69A],0.886
4,GGCCGGCAUGGUCCCAGCCUCCUCGGUGGCGCCGGCUGUGCAACAUUCCGAGGGGACCGUCCCCUCGGUAAUGGCGAAUGGGACCCA [C26G G39U],0.324
5,GGCCGGCAUGGUCCCAGCCUCCUCGGUGGCGCCGGCUGCGCAACAUUCCGAGGGGACCGUCCCCUCGGUAAUGGCGAAUGGGACCCA [C26G G39C],0.18
6,GGCCGGCAUGGUCCCAGCCUCCUCGGUGGCGCCGGCUGGGCAACAUUCCGAGGGGACCGUCCCCUCGAUAAUGGCGAAUGGGACCCA [C26G G68A],0.787
7,GGCCGGCAUGGUCCCAGCCUCCUCGGUGGCGCCGGCUGGGCAACAUUCCGAGGGGACCGUCCCGUCGGUAAUGGCGAAUGGGACCCA [C26G C64G],0.787
8,GGCCGGCAUGGUCCCAGCCUCCUCGUUGGCGCCGGCUGGGCAACCUUCCGAGGGGACCGUCCCCUCGGUAAUGGCGAAUGGGACCCA [C26U A45C],0.776
9,GGCCGGCAUGGUCCCAGCCUCCUCGGUGGCGCCGGCUGGGCAACAUUCCGAGCGGACCGUCCCCUCGGUAAUGGCGAAUGGGACCCA [C26G G53C],0.73
10,GGCCGGCAUGGUCCCAGCCUCCUCGGUGGCGCCGCCUGGGCAACAUUCCGAGGGGACCGUCCCCUCGGUAAUGGCGAAUGGGACCCA [C26G G35C],0.131
11,GGCCGGCAUGGUCCCAGCCUCCUCGGUGGCGCCGGCUGGGCAACAUUCCGAGGGGACCGUACCCUCGGUAAUGGCGAAUGGGACCCA [C26G C61A],1.12
12,GGCCGGCAUGGUCCCAGCCUCCUCGGUGGCGCCGGCUGGGCAACAUUCCGAGGGGACCGUCCCCGCGGUAAUGGCGAAUGGGACCCA [C26G U65G],1.09
13,GGCCGGCAUGGUCCCAGCCUCCUCGGUGGCGCCGGCUGGGCAACAUUCCGAUGGGACCGUCCCCUCGGUAAUGGCGAAUGGGACCCA [C26G G52U],0.671
14,GGCCGGCAUGGUCCCAGCCUCCUCGGUGGCGCCGGCUGGGCAACAUUCCGACGGGACCGUCCCCUCGGUAAUGGCGAAUGGGACCCA [C26G G52C],0.889
15,GGCCGGCAUGGUCCCAGCCUCCUCGUUGGCGCCGGCUGGGCAACAUUCCGUGGGGACCGUCCCCUCGGUAAUGGCGAAUGGGACCCA [C26U A51U],0.901
16,GGCCGGCAUGGUCCCAGCCUCCUCGUUGGCGCCGGCUGGGCAACAUUCCGCGGGGACCGUCCCCUCGGUAAUGGCGAAUGGGACCCA [C26U A51C],0.872
